The series in a line: protein stability index of a GFP-peptide fusion (yeast GPS) (PSI 1-4); higher = more stable; sorted into four equal gates, so the index is relative within each strain. Put shortly:
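For each peptide, the protein stability index sums the read frequency in every gate after multiplying it by the gate number. Read frequencies came from plasmids that were PCR-amplified from each gate and Illumina-sequenced, with reads assigned to strains by barcodes. The gates were four equal bins of GFP/Cherry fluorescence ratio applied to mid-log yeast in leucine-free medium carrying a pooled library of tiled 17-residue yeast protein peptides fused downstream of GFP on a Cherry-expressing plasmid.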

Our source for the protein stability index values is the supplement of paper PMC9732359.

± gives the uncertainty stated by the source.

In the case of LVGSEIYEKLKNYLKNY [CDC53], the protein stability index reads like this: (pdr5∆) 1.21 ± 0.12; (san1∆) 1.09 ± 0.16.
Regarding LKDLMDLCDVVESKFTE [RPC19], the protein stability index was 3.61 ± 0.2 (doa10∆), 3.5 ± 0.11 (pdr5∆), 3.27 ± 0.11 (san1∆) and 3.26 ± 0.12 (ubr1∆).
The corresponding values for TFIYGYCDKNFRENMSK [PRE3] are 2.12 ± 0.079, 2.17 ± 0.066, 2.21 ± 0.092 and 2.65 ± 0.053.
On to KALAIFVPVPSLAGFHK [RPS7A], for which the protein stability index reads like this: (doa10∆) 2.29 ± 0.051; (pdr5∆) 1.93 ± 0.04; (san1∆) 1.77 ± 0.069; (ubr1∆) 1.85 ± 0.039.
In the same order, the values of EEIRSQIDHFKSMLSKP [SWI3] are 1.65 ± 0.045, 2.32 ± 0.065, 2.67 ± 0.053 and 2.35 ± 0.04.
With DNNSKAEASFTFGTKHA [YLR335W/NUP2], the protein stability index reads like this: (doa10∆) 3.21 ± 0.082; (pdr5∆) 3.09 ± 0.076; (san1∆) 2.93 ± 0.049; (ubr1∆) 3.02 ± 0.053.
On to QLIKVAVHNGDRKHVAA [RPL9B], for which the protein stability index is, setting by setting: (doa10∆) 2.09 ± 0.054; (pdr5∆) 2.48 ± 0.059; (san1∆) 2.28 ± 0.061; (ubr1∆) 2.65 ± 0.027.
Turning to SNGNNLPLNKPRLEKLI [RGR1], the protein stability index was 3.27 ± 0.052 (doa10∆), 3.36 ± 0.056 (pdr5∆), 3.18 ± 0.055 (san1∆) and 3.16 ± 0.063 (ubr1∆).
Turning to NRSVVYFKLDLTSDLVY [RRI2], the protein stability index reads like this: (doa10∆) 1.37 ± 0.14; (pdr5∆) 1.92 ± 0.28; (ubr1∆) 1.39 ± 0.078.
On to LLFIVGQVAIKTLVYLE [YCS4], for which the protein stability index reads like this: (pdr5∆) 1.74 ± 0.2; (ubr1∆) 3.18 ± 0.1.
In the case of MIKESSTANPNIKLLNN [POP1], the protein stability index (doa10∆) came out at 3.07 ± 0.2, the protein stability index (pdr5∆) came out at 2.9 ± 0.11, the protein stability index (san1∆) amounted to 2.83 ± 0.087 and the protein stability index (ubr1∆) came to 2.74 ± 0.066.
The corresponding values for TVFFLIRVAETRGGASA [YJL039C/NUP192] are 2.18 ± 0.071, 2.08 ± 0.074, 2.76 ± 0.13 and 2.13 ± 0.047.
The corresponding values for SNAFYSVLRDTLVAQNL [SMC4] are 2.13 ± 0.086, 2.09 ± 0.054, 1.94 ± 0.076 and 2.13 ± 0.033.
In the same order, the values of NLIIFLYKFNGWSLVGR [YML103C/NUP188] are 1.59 ± 0.069, 2.22 ± 0.11, 2.52 ± 0.2 and 2.68 ± 0.11.
Turning to DEDEDEDEDDDDDDDED [QCR6], the protein stability index reads like this: (doa10∆) 2.25 ± 0.039; (pdr5∆) 1.96 ± 0.036; (san1∆) 2.05 ± 0.047; (ubr1∆) 1.98 ± 0.05.
For ELSVTGSAINHHRIFDS [YMR129W/POM152], the protein stability index turned out to be 3.02 ± 0.12 (doa10∆), 3.24 ± 0.1 (pdr5∆), 2.91 ± 0.12 (san1∆) and 2.93 ± 0.052 (ubr1∆).
The corresponding values for EKKLEDYCRILSDIETA [YGL172W/NUP49] are 1.75 ± 0.11, 3.14 ± 0.09, 2.67 ± 0.11 and 2.55 ± 0.089.
Regarding SMRIQILRRQAILRQQQ [GAL11], the protein stability index (doa10∆) was determined as 3.19 ± 0.29, the protein stability index (pdr5∆) is 2.98 ± 0.17 and the protein stability index (san1∆) was 3.17 ± 0.19.
Turning to LPELWALLNFVLPKIFN [SNF2], the protein stability index stood at 2.38 ± 0.074 (doa10∆), 1.89 ± 0.062 (pdr5∆), 2.07 ± 0.098 (san1∆) and 1.51 ± 0.038 (ubr1∆).
As for ITFHPKIRARSITLQGD [SMC2], the protein stability index amounted to 2.48 ± 0.049 (doa10∆), 2.56 ± 0.045 (pdr5∆), 2.69 ± 0.051 (san1∆) and 2.48 ± 0.043 (ubr1∆).
In the same order, the values of VIEQCYLKFIPLKRAIW [SRB8] are 1.5 ± 0.053, 1.69 ± 0.059, 1.4 ± 0.099 and 1.32 ± 0.042.
The corresponding values for LAASEIGISIVGRFSTI [ECM29] are 2.51 ± 0.091, 2.95 ± 0.078, 2.88 ± 0.073 and 2.3 ± 0.064.
In the same order, the values of KYSAITSSIFQESFNSV [NUT1] are 2.22 ± 0.053, 2.37 ± 0.046, 2.7 ± 0.047 and 2.48 ± 0.037.
On to KLKNENTDLKDIIQGNP [PCI8], for which the protein stability index by setting is: (doa10∆) 2.82 ± 0.051; (pdr5∆) 3.21 ± 0.084; (san1∆) 2.75 ± 0.14; (ubr1∆) 3.25 ± 0.089.
In the same order, the values of IFCVGSGQTFAYGVLDS [PRE2] are 2.49 ± 0.095, 2.04 ± 0.11, 2.249 ± 0.019 and 2.33 ± 0.073.
On to VDSRATAGNWVASQTVK [PRE2], for which the protein stability index came to 3.17 ± 0.12 (doa10∆), 3.4 ± 0.079 (pdr5∆), 3.13 ± 0.078 (san1∆) and 3.26 ± 0.066 (ubr1∆).
The corresponding values for PGVDVSAEEQLRKIDML [SRB7] are 2.9 ± 0.084, 2.61 ± 0.061, 2.31 ± 0.072 and 2.67 ± 0.043.
Consider EDCDLVIMALMLMSKIG [POP5], for which the protein stability index turned out to be 1.46 ± 0.038 (doa10∆), 1.89 ± 0.053 (pdr5∆), 1.81 ± 0.069 (san1∆) and 2.32 ± 0.037 (ubr1∆).
Consider RDKVCKQINEARDEILP [PGD1], for which the protein stability index runs as follows: (doa10∆) 1.77 ± 0.091; (pdr5∆) 1.6 ± 0.14; (san1∆) 1.5 ± 0.16.
As to AELNLPTVDEQRQYKVQ [SNF11], the protein stability index (doa10∆) was 3.22 ± 0.081, the protein stability index (pdr5∆) is 3.3 ± 0.08, the protein stability index (san1∆) is 3.12 ± 0.092 and the protein stability index (ubr1∆) stood at 3.31 ± 0.067.
In the same order, the values of NVKYRAVVFKPFKGEVV [RPB7] are 2.96 ± 0.12, 2.85 ± 0.047, 2.43 ± 0.075 and 2.86 ± 0.075.
The corresponding values for VREFQRRLAFLGIKVAE [BRR2] are 2.06 ± 0.12, 1.17 ± 0.14, 1.04 ± 0.23 and 1.17 ± 0.087.
The corresponding values for DIYMHDVNSASKSESDS [RRP4] are 3.59 ± 0.12, 3.48 ± 0.1, 3.15 ± 0.098 and 3.22 ± 0.066.
QMDGFDNLGQTKIIMAT [RPT4]: the protein stability index (doa10∆) was found to be 3.54 ± 0.091, the protein stability index (pdr5∆) came out at 3.55 ± 0.11, the protein stability index (san1∆) stood at 3.66 ± 0.082 and the protein stability index (ubr1∆) stood at 3.48 ± 0.098.
In the same order, the values of PIGEAGDFGGWFCPCHG [RIP1] are 2 ± 0.1, 1.97 ± 0.05, 2.87 ± 0.08 and 3.18 ± 0.075.
In turn, KRVTIQKKDIKLARRLR [HHT1] had a protein stability index (doa10∆) of 3.15 ± 0.14, a protein stability index (pdr5∆) of 2.87 ± 0.17 and a protein stability index (ubr1∆) of 3.05 ± 0.088.
RAIRSEKYGKQVYDLLK [BRR2]: the protein stability index is, setting by setting: (san1∆) 2.94 ± 0.18; (ubr1∆) 3.26 ± 0.13.
Regarding AEEALEPSYIFEYLATV [PRE4], the protein stability index was 2.66 ± 0.059 (doa10∆), 2.44 ± 0.067 (pdr5∆), 2.54 ± 0.061 (san1∆) and 2.73 ± 0.045 (ubr1∆).
As for KFENDELAESTTTKIID [LRP1], the protein stability index by setting is: (doa10∆) 2.04 ± 0.13; (pdr5∆) 2.47 ± 0.12; (san1∆) 2.23 ± 0.086; (ubr1∆) 2.27 ± 0.053.
The corresponding values for DLLNAASIESADILCPL [IRR1] are 3.05 ± 0.2, 2.24 ± 0.13, 2.92 ± 0.12 and 2.79 ± 0.058.
